{"source": "paper PMC5691136", "about": "(2017)", "binders": {"B1": {"name": "CXCR3-A expressed from pEGFPN2 in HEK-293 cells (HEK-CXCR3-A) (receptor)", "chain": "MVLEVSDHQVLNDAEVAALLENFSSSYDYGENESDSCCTSPPCPQDFSLNFDRAFLPALYSLLFLLGLLGNGAVAAVLLSRRTALSSTDTFLLHLAVADTLLVLTLPLWAVDAAVQWVFGSGLCKVAGALFNINFYAGALLLACISFDRYLNIVHATQLYRRGPPARVTLTCLAVWGLCLLFALPDFIFLSAHHDERLNATHCQYNFPQVGRTALRVLQLVAGFLLPLLVMAYCYAHILAVLLVSRGQRRLRAMRLVVVVVVAFALCWTPYHLVVLVDILMDLGALARNCGRESRVDVAKSVTSGLGYMHCCLNPLLYAFVGVKFRERMWMLLLRLGCPNQRGLQRQPSSSRRDSSWSETSEASYSGL"}}, "molecular_target": "PS372424 (CXCR3 agonist)", "data": [{"binder": "B1", "values": [{"measurement": "Kd", "value": 40, "unit": "nM"}]}]}
